From patent publication US20210380703A1 (RIGEL PHARMACEUTICALS, published 2021)
Positions count from the first letter of the chain named.

B1: 375_B03 (antibody, V domains shown)
VH: EVQLLESGGGLVQPGGSLRLSCAASGFTFSSYSMNWVRQAPGKGLEWVAGINYNGGYTSYADSVKGRFTISRDNSKNTLYLQMNSLRAEDTAVYYCARGATWHDTHLDYWGQGTLVTVSS
VL: DIQMTQSPSSLSASVGDRVTITCRASQSILTYLNWYQQKPGKAPKLLIYAATSRASGVPSRFSGSGSGTDFTLTISSLQPEDFATYYCQQSYDSPLTFGGGTKVEIK
notes: VH/VL only
B2: 369_F08 (antibody, V domains shown)
VH: B1 VH with S31D, S33G, N35H, A49S, G55S, T101N, H106A
VL: B1 VL with T31S, T52S, R54L, A55Q, S94L
notes: Group III
B3: 365_D02 (antibody, V domains shown)
VH: B1 VH with N35H, G50S
VL: B1 VL with L30V, R54L, S94N
notes: VH/VL only
B4: 365_C10 (antibody, V domains shown)
VH: B1 VH with S33G, N35H, G50S, G99S, T101N, H106A
VL: B1 VL with T31S, L33V, R54L, D93E
notes: VH/VL only
B5: 365_D09 (antibody, V domains shown)
VH: B1 VH with S33G, N35H, A49S, G55S, G99S, T101N, H106A
VL: B1 VL with T31S, Y92D, D93E
notes: VH/VL only
B6: 365_A11 (antibody, V domains shown)
VH: B1 VH with S30D, S31D, S33G, A49S, G55S, G99S, T101N, H106A
VL: B1 VL with T31S, L47V, R54L, D93E
notes: VH/VL only
B7: 365_H05 (antibody, V domains shown)
VH: B1 VH with S33G
VL: B1 VL with L33V, R54L, A55H, D93S, S94T
notes: VH/VL only
B8: 365_H02 (antibody, V domains shown)
VH: B1 VH with S31D, S33G, A49S, G50S, S59G, G99S, T101N
VL: B1 VL with D93E, S94N
notes: VH/VL only
B9: 365_C11 (antibody, V domains shown)
VH: B1 VH with T58K, G99S, T101N
VL: B1 VL with L30I, L47V, A51V, D93S, S94L
notes: VH/VL only
B10: 365_A03 (antibody, V domains shown)
VH: B1 VH with G55S, T58K, S59G, G99S, T101N, H106A
VL: B1 VL with T31S, L47V, A51V
notes: VH/VL only
B11: 365_H12 (antibody, V domains shown)
VH: B1 VH with A49S, G50N, T58K, G99S, T101N
VL: B1 VL with L30I, L33V, D93S, S94T
notes: VH/VL only
B12: 365_D11 (antibody, V domains shown)
VH: B1 VH with S30D, S33G, A49S, G50N, G55S, G99S, T101N, H106A
VL: B1 VL with L30V, T31S, L47V, D93S
notes: VH/VL only
B13: 365_D10 (antibody, V domains shown)
VH: B1 VH with S59G
VL: B1 VL with L30S, D93E
notes: VH/VL only
B14: 365_C04 (antibody, V domains shown)
VH: B1 VH with S30D, G50N, T58K, S59G
VL: B1 VL with L47V, R54L, S94T
notes: VH/VL only
B15: 365_G11 (antibody, V domains shown)
VH: B1 VH with S33G, G50N, S59G, G99S, T101N, H106A
VL: B1 VL with L30I, L33V, A51V, A55H, D93N
notes: VH/VL only
B16: 365_E11 (antibody, V domains shown)
VH: B1 VH with S30D, S31D, A49S, G50S, T58K
VL: not shown
notes: VH/VL only
B17: 365_A12 (antibody, V domains shown)
VH: B1 VH with S33G, N35H, R98K, G99S, T101N
VL: B1 VL with L33V, A55H, D93E, S94N
notes: VH/VL only
B18: 365_F06 (antibody, V domains shown)
VH: B1 VH with S33G, G55S, T58K, G99S, T101N, H106A
VL: B1 VL with T31S, L33V, Y92D, D93N, S94L
notes: VH/VL only
B19: 365_B11 (antibody, V domains shown)
VH: B1 VH with S33G, N35H, G99S, T101N, H106A
VL: B1 VL with L30I, T31S, L47V, A51T, A55H
notes: VH/VL only
B20: 365_E05 (antibody, V domains shown)
VH: B1 VH with S33G, N35H, G99S, T101N, H106A
VL: B1 VL with L30V, T31S, L33V, R54L, S94N
notes: VH/VL only
B21: 365_H10 (antibody, V domains shown)
VH: B1 VH with S30D, S33G, G55S, T58K, G99S, T101N
VL: B1 VL with L30V, L33V, L47V, R54L, D93N, S94T
notes: VH/VL only
B22: 365_G01 (antibody, V domains shown)
VH: B1 VH with S30D, S33G, G55S, T58K, G99S, T101N, H106A
VL: B1 VL with L33V, A51T
notes: VH/VL only
B23: 365_F05 (antibody, V domains shown)
VH: B1 VH with S33G, G50S
VL: B1 VL with L30V, L33V, D93E, S94T
notes: VH/VL only
B24: 365_H11 (antibody, V domains shown)
VH: B1 VH with A49S, G55S, S59G, G99S, T101N, H106A
VL: B1 VL
notes: VH/VL only
B25: 365_E09 (antibody, V domains shown)
VH: B1 VH with S33G, N35H, G50S, G55S, T58K, G99S, T101N, H106A
VL: B1 VL with L33V, L47V, Y92D
notes: VH/VL only
B26: 365_D07 (antibody, V domains shown)
VH: B1 VH with S33G, A49S, G50S, G55S, T58K
VL: not shown
notes: VH/VL only
B27: 365_F12 (antibody, V domains shown)
VH: B1 VH with S31D, A49S, G99S, T101N
VL: B1 VL with L33V, L47V, A55H, D93E, S94T
notes: VH/VL only
B28: 365_E01 (antibody, V domains shown)
VH: B1 VH with S31D, A49S, G55S, T58K, S59G, G99S, T101N, H106A
VL: B1 VL with L30I, T31S
notes: VH/VL only
B29: 365_A09 (antibody, V domains shown)
VH: B1 VH with S33G, N35H, G50S
VL: B1 VL with T31S, L33V, S94L
notes: VH/VL only
B30: 365_D12 (antibody, V domains shown)
VH: B1 VH with S30D, S33G, A49S, G50N, S59G, G99S, T101N, H106A
VL: B1 VL with L30V, L47V, S94T
notes: VH/VL only
B31: 365_C02 (antibody, V domains shown)
VH: B1 VH with S30D, A49S, G50N, T58K, S59G
VL: B1 VL with L30S, L47V, A55H, D93E, S94N
notes: VH/VL only
B32: 365_H06 (antibody, V domains shown)
VH: B1 VH with S33G, A49S, G55S, S59G, G99S, T101N, H106A
VL: B1 VL with L30S, T31S, L33V, D93S, S94T
notes: VH/VL only
B33: 365_B07 (antibody, V domains shown)
VH: B1 VH with S33G, N35H, G50S, G55S, G99S, T101N, H106A
VL: B1 VL with D93E, S94N
notes: VH/VL only
B34: 365_E07 (antibody, V domains shown)
VH: B1 VH with S30D, S33G, N35H, A49S, G55S, R98K, G99S, T101N
VL: B1 VL with T31S, S94N
notes: VH/VL only
B35: 365_A08 (antibody, V domains shown)
VH: B1 VH with G50S, T58K
VL: B1 VL with L30I, L47V, Y92D, D93N, S94T
notes: VH/VL only

Tests used:
Human ACVR2A = target: T1, Human ACVR2A (human, UniProt P27037 20-135, limits assumed); test: ELISA
T1 construct: also called activin receptor, type II A
T1 sequence (P27037 20-135 limits assumed): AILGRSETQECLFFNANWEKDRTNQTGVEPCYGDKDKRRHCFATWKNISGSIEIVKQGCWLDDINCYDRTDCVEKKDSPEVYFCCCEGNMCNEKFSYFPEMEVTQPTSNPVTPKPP
Experimental: (§1) The binding of ACVR2A-specific monoclonal antibodies to human ACVR2A, mouse ACVR2A, biotinylated goat anti-human kappa light chain (positive control) and human Fc (negative control) were determined by ELISA.

Mouse ACVR2A = Mouse ACVR2A (mouse, UniProt P27038 20-135, limits assumed); test: ELISA
Sequence of Mouse ACVR2A (P27038 20-135 limits assumed): as the sequence (P27037 20-135 limits assumed) above, with K20R, V73I counted along it
Experimental: as §1

Goat anti-Human Kappa = target: T2, Goat anti-Human Kappa; test: ELISA; positive control
T2 construct: Positive control; also called biotinylated goat anti-human kappa light chain
Experimental: as §1

[1] = target: T3, biotinylated goat anti-human kappa light chain; test: ELISA, positive control
T3 construct: positive control of the ELISA
Experimental: as §1
Also: test concentration or dose not given here.

Binder | optical density (Human ACVR2A) [OD] | optical density (Mouse ACVR2A) [OD] | optical density (Goat anti-Human Kappa) [OD] | optical density [1] [OD]
B1 | 3.68 | 3.7 | 3.24 | 
B2 |  |  |  | 3.1
B3 | 2.54 | 2.7 | 3.52 | 
B4 | 2.45 | 2.44 | 3.41 | 
B5 | 1.52 | 1.35 | 3.38 | 
B6 | 2.04 | 1.94 | 3.27 | 
B7 | 2.1 | 2.19 | 3.46 | 
B8 | 2.73 | 2.91 | 3.58 | 
B9 | 2.66 | 2.78 | 3.67 | 
B10 | 3.4 | 3.24 | 3.44 | 
B11 | 2.97 | 2.91 | 3.78 | 
B12 | 2.34 | 2.22 | 3.38 | 
B13 | 2.39 | 2.24 | 3.27 | 
B14 | 2.26 | 2.67 | 3.55 | 
B15 | 1.75 | 1.78 | 3.47 | 
B16 | 1.74 | 1.74 | 3.57 | 
B17 | 2.67 | 2.87 | 3.67 | 
B18 | 1.95 | 2.08 | 3.4 | 

Binder | optical density (Human ACVR2A) [OD] | optical density (Mouse ACVR2A) [OD] | optical density (Goat anti-Human Kappa) [OD] | optical density [1] [OD]
B19 | 2.84 | 2.75 | 3.58 | 
B20 | 2.18 | 2.44 | 3.36 | 
B21 | 2.68 | 2.82 | 3.51 | 
B22 | 2.48 | 2.65 | 3.45 | 
B23 | 2.14 | 2.23 | 3.42 | 
B24 | 3.24 | 3.35 | 3.61 | 
B25 | 1.91 | 2.16 | 3.47 | 
B26 | 1.83 | 2.06 | 3.38 | 
B27 | 2.91 | 2.83 | 3.63 | 
B28 | 2.91 | 2.84 | 3.54 | 
B29 | 2.45 | 2.48 | 3.3 | 
B30 | 2.57 | 2.61 | 3.53 | 
B31 | 2.15 | 2.33 | 3.45 | 
B32 | 2.24 | 2.46 | 3.44 | 
B33 | 2.11 | 2.21 | 3.23 | 
B34 | 2.38 | 2.7 | 3.51 | 
B35 | 1.58 | 1.59 | 3.2 | 
